Test results published in publication PMC6277172 (Protein Engineering, Design and Selection, 2018).

Target: N-terminal domain of MDM2 (M6-N125) (UniProt Q00987 6-125)
Assay: fluorescence polarisation

Sequence of N-terminal domain of MDM2 (M6-N125) (Q00987 6-125): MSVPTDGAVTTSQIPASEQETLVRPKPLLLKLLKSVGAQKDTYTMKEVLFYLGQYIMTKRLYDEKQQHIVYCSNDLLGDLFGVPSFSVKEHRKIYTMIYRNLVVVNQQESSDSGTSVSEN

{FAM}-RFMDYWEGL-NH2 [FAM labeled 12-1 peptide]: binds.
